Common to all, as to settings: both partners purified
In one experiment the target is T1, Blk SH2 domain (116-222) (human, UniProt P51451 116-222, biotin on the AviTag).
T1 construct: human Blk kinase, SH2 domain, residues 116-222; source: E. coli C43(DE3) with BirA helper plasmid, purified (HisTrap, HiTrap Q, Superdex 75); not shown: His6-SUMO, N-terminal, cleaved; AviTag, C-terminal, kept
The experiment in a line: fluorescence polarisation; competition mode: unlabelled phosphopeptide competes with a FITC-labelled probe phosphopeptide for the purified SH2 domain; probe KD first measured in direct mode; as described in ref. 33. A general note: In fluorescence polarisation assays a small probe gives low polarisation when free and higher when bound to something large.

The target in a further experiment is T2, Lyn SH2 domain (121-228) (human, UniProt P07948 121-228, biotin on the AviTag).
T2 construct: source: E. coli C43(DE3) with BirA helper plasmid, purified (HisTrap, HiTrap Q, Superdex 75); not shown: His6-SUMO, N-terminal, cleaved; AviTag, C-terminal, kept
T2 sequence (P07948 121-228): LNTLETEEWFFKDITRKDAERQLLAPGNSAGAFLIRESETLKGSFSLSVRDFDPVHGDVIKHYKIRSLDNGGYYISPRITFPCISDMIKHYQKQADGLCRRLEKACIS
The description is as above.

A further experiment deals with T3, Yes SH2 domain (150-257) (human, UniProt P07947 150-257, biotin on the AviTag).
T3 construct: human Yes kinase, SH2 domain, residues 150-257; source: E. coli C43(DE3) with BirA helper plasmid, purified (HisTrap, HiTrap Q, Superdex 75); not shown: His6-SUMO, N-terminal, cleaved; AviTag, C-terminal, kept
T3 sequence (P07947 150-257): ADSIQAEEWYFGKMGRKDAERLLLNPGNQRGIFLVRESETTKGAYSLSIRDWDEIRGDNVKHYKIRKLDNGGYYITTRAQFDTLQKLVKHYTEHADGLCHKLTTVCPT
The experiment is described as above.

The target of the next experiment is T4, Fyn SH2 domain (142-248) (human, UniProt P06241 142-248, biotin on the AviTag).
T4 construct: human Fyn kinase, SH2 domain, residues 142-248; source: E. coli C43(DE3) with BirA helper plasmid, purified (HisTrap, HiTrap Q, Superdex 75); not shown: His6-SUMO, N-terminal, cleaved; AviTag, C-terminal, kept
T4 sequence (P06241 142-248): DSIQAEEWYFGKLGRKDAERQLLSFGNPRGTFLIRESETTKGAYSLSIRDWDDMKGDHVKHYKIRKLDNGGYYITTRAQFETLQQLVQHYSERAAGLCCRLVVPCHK
Described as above.

The target of another experiment is T5, c-Src SH2 domain (UniProt P12931-1 151-248, biotin (biotinylated SH2 domain of the selection)).
T5 construct: SH2 domain of c-Src kinase; source: purified
The experiment in a line: fluorescence polarisation; competition mode; unlabelled phosphopeptide against 30 nM FITC-Ahx-GDG-pY-EEISPLLL-NH2 and 122.745 nM c-Src SH2 (123.745 to 125.745 in three rows; Table S3).

For a further experiment, the target named is T6, Grb2 SH2 domain (UniProt P62993 60-152, biotin (biotinylated SH2 domain of the selection)).
T6 construct: SH2 domain of the adapter protein Grb2; source: purified
T6 sequence (P62993 60-152): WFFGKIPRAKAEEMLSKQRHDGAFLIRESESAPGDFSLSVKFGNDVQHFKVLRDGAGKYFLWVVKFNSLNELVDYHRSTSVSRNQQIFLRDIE
The experiment in a line: fluorescence polarisation; competition mode; unlabelled phosphopeptide against 30 nM FITC-Ahx-FDDPS(pY)VNVQN and 123 nM Grb2 SH2 (Table S3).

Non-standard residues stand in square brackets, D forms with d. No end group written: not given here. *: point of attachment. FITC = O=C1OC2(c3ccc(O)cc3Oc3cc(O)ccc32)c2ccc(NC(=S)*)cc21; pY = N[C@@H](Cc1ccc(OP(=O)(O)O)cc1)C(=O)O; Ahx = NCCCCCC(=O)O

One may read the Kd as the constant that tells how readily two partners part at equilibrium. Read a high Kd as a looser complex.

T1 sequence (P51451 116-222): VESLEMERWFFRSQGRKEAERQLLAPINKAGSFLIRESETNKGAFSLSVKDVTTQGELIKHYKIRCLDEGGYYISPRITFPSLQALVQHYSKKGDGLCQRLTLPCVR

B1: FITC-Ahx-GDG(pY)EEISPLLL (peptide)
peptide: {FITC-Ahx}-GDG[pY]EEISPLLL
notes: c-Src SH2 consensus peptide; the Y is phosphotyrosine; also called c-Src SH2 consensus; probe; source: synthetic peptide (SynPeptide, China)
With B1, the binding result with Blk SH2 domain (116-222), with Lyn SH2 domain (121-228), with Yes SH2 domain (150-257) and with Fyn SH2 domain (142-248) was “binds” each time.

B2: Syn-G2-1 (synthetic) (peptide)
peptide: Ac-QKEAHH[pY]VNWRTG-NH2
notes: source: synthetic peptide (SynPeptide, China)
In the case of B2, the dissociation constant Kd with c-Src SH2 domain was 9.66 µM; with Grb2 SH2 domain, 31.8 nM.

Values taken from article doi:10.1101/2024.12.23.630085, “Accurate sequence-to-affinity models for SH2 domains from multi-round peptide binding assays coupled with free-energy regression” (bioRxiv, 2025).
